Values quoted from earlier work as cited in publication PMC4283463 (Journal of pharmaceutical sciences, 2014).

## human growth hormone [hGH]
  decrease in stability on carbamidomethylation of all four Cys residues: ~ 37.7 kJ/mol
